The binders below were run against T1, Human LRRC15 Protein, His Tag (Acro Biosystems) (human, UniProt Q8TF66 22-538, limits assumed) (assay: BLI; dissociation pH 7.4 black, pH 5.4 grey [D00009 FIG. 1G]).
T1 construct: Bought protein with His tag
T1 sequence (looked up): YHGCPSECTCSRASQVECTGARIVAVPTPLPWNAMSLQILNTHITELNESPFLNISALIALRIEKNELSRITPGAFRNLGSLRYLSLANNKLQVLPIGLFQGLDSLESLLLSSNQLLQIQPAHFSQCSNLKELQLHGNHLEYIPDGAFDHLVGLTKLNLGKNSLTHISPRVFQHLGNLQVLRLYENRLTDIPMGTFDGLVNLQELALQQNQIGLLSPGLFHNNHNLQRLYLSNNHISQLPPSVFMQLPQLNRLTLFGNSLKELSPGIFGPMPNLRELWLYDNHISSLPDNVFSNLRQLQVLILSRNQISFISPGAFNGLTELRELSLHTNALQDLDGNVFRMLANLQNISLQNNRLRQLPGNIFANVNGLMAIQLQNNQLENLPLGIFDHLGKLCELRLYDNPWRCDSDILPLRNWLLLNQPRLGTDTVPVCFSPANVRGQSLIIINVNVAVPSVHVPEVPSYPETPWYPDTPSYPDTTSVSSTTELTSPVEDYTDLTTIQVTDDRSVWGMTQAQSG

Binder | binding result
MYT8387 (antibody, V domains shown, hu15G7 VH Y34H; human Fc) VH: EVQLVESGGGLVQPGGSLRLSCTASGLDFRRTNHICWVRQAPGKGLEWVGCIYIADVVHYYASWAKGRFTFSRDTSKNTVYLQMNSLRAEDTAVYYCARGADGGFVYGMDLWGQGTLVTVSS VL: EIVMTQSPSTLSASVGDRVIITCQASQSIGNYLSWYQQKPGKAPKRLIYSASTLPSGVPSRFSGSGSGAEFTLTISSLQPDDFATYYCQNNYWLAGYGHPFGQGTKLTVL | binds
MYT8400 (antibody, V domains shown, hu15G7 VH G104H, V106H; human Fc) VH: EVQLVESGGGLVQPGGSLRLSCTASGLDFRRTNYICWVRQAPGKGLEWVGCIYIADVVHYYASWAKGRFTFSRDTSKNTVYLQMNSLRAEDTAVYYCARGADGHFHYGMDLWGQGTLVTVSS VL: EIVMTQSPSTLSASVGDRVIITCQASQSIGNYLSWYQQKPGKAPKRLIYSASTLPSGVPSRFSGSGSGAEFTLTISSLQPDDFATYYCQNNYWLAGYGHPFGQGTKLTVL | binds
MYT8389 (antibody, V domains shown, hu15G7 VH G104H; human Fc) VH: EVQLVESGGGLVQPGGSLRLSCTASGLDFRRTNYICWVRQAPGKGLEWVGCIYIADVVHYYASWAKGRFTFSRDTSKNTVYLQMNSLRAEDTAVYYCARGADGHFVYGMDLWGQGTLVTVSS VL: EIVMTQSPSTLSASVGDRVIITCQASQSIGNYLSWYQQKPGKAPKRLIYSASTLPSGVPSRFSGSGSGAEFTLTISSLQPDDFATYYCQNNYWLAGYGHPFGQGTKLTVL | binds
MYT8399 (antibody, V domains shown, hu15G7 VH G104H, F105H; human Fc) VH: EVQLVESGGGLVQPGGSLRLSCTASGLDFRRTNYICWVRQAPGKGLEWVGCIYIADVVHYYASWAKGRFTFSRDTSKNTVYLQMNSLRAEDTAVYYCARGADGHHVYGMDLWGQGTLVTVSS VL: EIVMTQSPSTLSASVGDRVIITCQASQSIGNYLSWYQQKPGKAPKRLIYSASTLPSGVPSRFSGSGSGAEFTLTISSLQPDDFATYYCQNNYWLAGYGHPFGQGTKLTVL | binds
MYT8388 (antibody, V domains shown, hu15G7 VH Y53H; human Fc) VH: EVQLVESGGGLVQPGGSLRLSCTASGLDFRRTNYICWVRQAPGKGLEWVGCIHIADVVHYYASWAKGRFTFSRDTSKNTVYLQMNSLRAEDTAVYYCARGADGGFVYGMDLWGQGTLVTVSS VL: EIVMTQSPSTLSASVGDRVIITCQASQSIGNYLSWYQQKPGKAPKRLIYSASTLPSGVPSRFSGSGSGAEFTLTISSLQPDDFATYYCQNNYWLAGYGHPFGQGTKLTVL | binds
MYT8401 (antibody, V domains shown, hu15G7 VH F105H, V106H; human Fc) VH: EVQLVESGGGLVQPGGSLRLSCTASGLDFRRTNYICWVRQAPGKGLEWVGCIYIADVVHYYASWAKGRFTFSRDTSKNTVYLQMNSLRAEDTAVYYCARGADGGHHYGMDLWGQGTLVTVSS VL: EIVMTQSPSTLSASVGDRVIITCQASQSIGNYLSWYQQKPGKAPKRLIYSASTLPSGVPSRFSGSGSGAEFTLTISSLQPDDFATYYCQNNYWLAGYGHPFGQGTKLTVL | binds
MYT8390 (antibody, V domains shown, hu15G7 VH F105H; human Fc) VH: EVQLVESGGGLVQPGGSLRLSCTASGLDFRRTNYICWVRQAPGKGLEWVGCIYIADVVHYYASWAKGRFTFSRDTSKNTVYLQMNSLRAEDTAVYYCARGADGGHVYGMDLWGQGTLVTVSS VL: EIVMTQSPSTLSASVGDRVIITCQASQSIGNYLSWYQQKPGKAPKRLIYSASTLPSGVPSRFSGSGSGAEFTLTISSLQPDDFATYYCQNNYWLAGYGHPFGQGTKLTVL | binds
MYT8397 (antibody, V domains shown, hu15G7 VH Y53H, F105H; human Fc) VH: EVQLVESGGGLVQPGGSLRLSCTASGLDFRRTNYICWVRQAPGKGLEWVGCIHIADVVHYYASWAKGRFTFSRDTSKNTVYLQMNSLRAEDTAVYYCARGADGGHVYGMDLWGQGTLVTVSS VL: EIVMTQSPSTLSASVGDRVIITCQASQSIGNYLSWYQQKPGKAPKRLIYSASTLPSGVPSRFSGSGSGAEFTLTISSLQPDDFATYYCQNNYWLAGYGHPFGQGTKLTVL | no binding (tested: 50 nM LRRC15)
MYT8394 (antibody, V domains shown, hu15G7 VH Y34H, F105H; human Fc) VH: EVQLVESGGGLVQPGGSLRLSCTASGLDFRRTNHICWVRQAPGKGLEWVGCIYIADVVHYYASWAKGRFTFSRDTSKNTVYLQMNSLRAEDTAVYYCARGADGGHVYGMDLWGQGTLVTVSS VL: EIVMTQSPSTLSASVGDRVIITCQASQSIGNYLSWYQQKPGKAPKRLIYSASTLPSGVPSRFSGSGSGAEFTLTISSLQPDDFATYYCQNNYWLAGYGHPFGQGTKLTVL | no binding (tested: 50 nM LRRC15)
MYT8398 (antibody, V domains shown, hu15G7 VH Y53H, V106H; human Fc) VH: EVQLVESGGGLVQPGGSLRLSCTASGLDFRRTNYICWVRQAPGKGLEWVGCIHIADVVHYYASWAKGRFTFSRDTSKNTVYLQMNSLRAEDTAVYYCARGADGGFHYGMDLWGQGTLVTVSS VL: EIVMTQSPSTLSASVGDRVIITCQASQSIGNYLSWYQQKPGKAPKRLIYSASTLPSGVPSRFSGSGSGAEFTLTISSLQPDDFATYYCQNNYWLAGYGHPFGQGTKLTVL | no binding (tested: 50 nM LRRC15)
MYT8392 (antibody, V domains shown, hu15G7 VH Y34H, Y53H; human Fc) VH: EVQLVESGGGLVQPGGSLRLSCTASGLDFRRTNHICWVRQAPGKGLEWVGCIHIADVVHYYASWAKGRFTFSRDTSKNTVYLQMNSLRAEDTAVYYCARGADGGFVYGMDLWGQGTLVTVSS VL: EIVMTQSPSTLSASVGDRVIITCQASQSIGNYLSWYQQKPGKAPKRLIYSASTLPSGVPSRFSGSGSGAEFTLTISSLQPDDFATYYCQNNYWLAGYGHPFGQGTKLTVL | no binding (tested: 50 nM LRRC15)
MYT8395 (antibody, V domains shown, hu15G7 VH Y34H, V106H; human Fc) VH: EVQLVESGGGLVQPGGSLRLSCTASGLDFRRTNHICWVRQAPGKGLEWVGCIYIADVVHYYASWAKGRFTFSRDTSKNTVYLQMNSLRAEDTAVYYCARGADGGFHYGMDLWGQGTLVTVSS VL: EIVMTQSPSTLSASVGDRVIITCQASQSIGNYLSWYQQKPGKAPKRLIYSASTLPSGVPSRFSGSGSGAEFTLTISSLQPDDFATYYCQNNYWLAGYGHPFGQGTKLTVL | no binding (tested: 50 nM LRRC15)

Each binder was assayed against T2, Human LRRC15 Protein, His Tag (Acro Biosystems) (human, UniProt Q8TF66 22-538, limits assumed) (assay: BLI; dissociation pH 7.4 black, pH 5.4 grey [1/2); D00025 FIG. 6B (1/2]).
T2 construct: not shown: His tag
T2 sequence (looked up): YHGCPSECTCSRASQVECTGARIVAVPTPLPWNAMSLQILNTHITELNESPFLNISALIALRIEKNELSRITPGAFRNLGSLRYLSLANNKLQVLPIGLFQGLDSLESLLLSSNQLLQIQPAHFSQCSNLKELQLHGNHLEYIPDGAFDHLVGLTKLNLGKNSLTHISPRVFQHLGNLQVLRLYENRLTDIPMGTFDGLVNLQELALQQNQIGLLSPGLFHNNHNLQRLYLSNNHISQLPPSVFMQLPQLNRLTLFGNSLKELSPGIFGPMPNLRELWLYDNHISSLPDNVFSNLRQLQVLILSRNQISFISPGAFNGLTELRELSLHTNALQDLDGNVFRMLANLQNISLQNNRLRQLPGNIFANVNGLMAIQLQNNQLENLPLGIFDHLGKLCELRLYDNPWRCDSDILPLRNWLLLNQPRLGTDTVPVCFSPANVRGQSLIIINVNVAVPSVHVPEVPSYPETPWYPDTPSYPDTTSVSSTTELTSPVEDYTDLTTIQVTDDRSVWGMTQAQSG
Method: Desirable mutations were transferred to a humanized framework (humanized, MYT 8387-8411). After allowing for four days of protein expression, cell culture supernatants were collected, quantified by SDS-PAGE analysis, and the pH dependence of the variant was evaluated using biolayer interferometry (BLI) on an Octet RED 96e instrument. Briefly, cell culture supernatants were diluted based on qualitative expression level of the variant determined by visual examination of SDS-PAGE gels, 5 μL of cell culture supernatant was diluted into 195 μL of 1×PBST, pH 7.4 for high expressors, 25 μL of cell culture supernatant was diluted into 175 μL of 1×PBST, pH 7.4 for medium expressors and 100 μL of cell culture supernatant was diluted into 100 μL of 1×PBST, pH 7.4 for low expressors for loading onto the sensor tips. The resulting diluted supernatants were then captured on an anti-human Fc sensor (Forte Bio). A baseline was established using 1×PBST (50 mM Potassium Phosphate Buffer+150 mM NaCl+0.05% Tween 20) pH 7.4, and the […] was associated with 50 nM of LRRC15 (Human LRRC15 Protein, His Tag, Acro Biosystems) in 1×PBST pH 7.4 for 120 sec to generate an association curve. In the dissociation phase, the antibody-antigen complex on the sensor was exposed to 1×PBST pH 7.4 or pH 5.4, for 300 sec. Association and dissociation phase curves were examined for the starting ABPC antibody (with no substitutions) and each corresponding antibody variant at pH 5.4 and pH 7.4 to inform on two criteria: a) enhanced dissociation (i.e., higher koff values) at pH 5.4 due to histidine substitution compared to the starting ABPC, (with no substitutions), and b) reduced dissociation at pH 7.4 (i.e., lower koff values) compared to pH 5.4 in the antibody variant itself and with the starting ABPC (with no substitutions).
The methods of Examples 9-10 were applied to RabMAb clone 29F1 (rabbit VH SEQ ID NO: 572 and VL SEQ ID NO: 578; and humanized VH SEQ ID NO: 576 and VL SEQ ID NO: 582).

Binder | binding result
MYT9712 (antibody, V domains shown, also called hu29F1 VH G68E) VH: EVQLVESGGGLVQPGGSLRLSCTASGFSFSSSHWICWVRQAPGKGLEWVGCIYAGSIGSTYYASWAKERFTISRDTSKNTVYLQMNSLRAEDTAVYYCARAPNDIYNYYFNLWGQGTLVTVSS VL: EIVMTQSPSTLSASVGDRVIITCQASENIYNYLAWYQQKPGKAPKLLIYYASTLASGVPSRFSGSGSGAEFTLTISSLQPDDFATYYCQSGYVSKSSTFGQGTKLTVL | binds
MYT9713 (antibody, V domains shown, also called hu29F1 VH A99E) VH: EVQLVESGGGLVQPGGSLRLSCTASGFSFSSSHWICWVRQAPGKGLEWVGCIYAGSIGSTYYASWAKGRFTISRDTSKNTVYLQMNSLRAEDTAVYYCERAPNDIYNYYFNLWGQGTLVTVSS VL: EIVMTQSPSTLSASVGDRVIITCQASENIYNYLAWYQQKPGKAPKLLIYYASTLASGVPSRFSGSGSGAEFTLTISSLQPDDFATYYCQSGYVSKSSTFGQGTKLTVL | binds
MYT9714 (antibody, V domains shown, also called hu29F1 VH R100E) VH: EVQLVESGGGLVQPGGSLRLSCTASGFSFSSSHWICWVRQAPGKGLEWVGCIYAGSIGSTYYASWAKGRFTISRDTSKNTVYLQMNSLRAEDTAVYYCAEAPNDIYNYYFNLWGQGTLVTVSS VL: EIVMTQSPSTLSASVGDRVIITCQASENIYNYLAWYQQKPGKAPKLLIYYASTLASGVPSRFSGSGSGAEFTLTISSLQPDDFATYYCQSGYVSKSSTFGQGTKLTVL | binds

Source: US20250352661A1 (MYTHIC THERAPEUTICS, published 2025)
